Assay results: patent US20040018957A1, “Crystal structure of a Ras-P13K complex” (priority 2000, published 2004)

Key:
PI3K = biological target: T1, PI3K (Homo sapiens, UniProt P48736); assay: Steady state and kinetic measurements of mant-ATP and mant-ADP binding; settings: FIG. 2C
T1 construct: a construct containing residues 144-1102 of the human PI3Kγ with a C-terminal His6 tag; His6 (C); made in house; host or cells: Sf9 insect cells (baculovirus, pVL1393)
Description: Equilibrium binding of mant-ATP to PI3K was measured in a SLM 8000 S spectrofluorimeter with λex=280 nm and […]. This allowed monitoring of energy transfer from tryptophan in the PI3K to mant-ATP. Mant-ATP was titrated into a 1 μM solution of PI3K in running buffer. Each data point represents the average of data collected for 30 seconds with a 1 second integration time. For data collected in the presence of Ras, the solution also contained 6 μM H-ras.GMPPNP. The data were fitted to the binding equation with Kaleidagraph.
All kinetic data were collected in a Hi-Tech Na61 instrument set up in the single push mode with λex=280 nm and emission monitored with 399 nm cutoff filters. A solution of PI3K was mixed a solution of mant-ATP such that the final PI3K concentration was 1 μM and the ATP concentrations were 2.5, 5. 7.5, 10, 12.5, and 25 μM. The displacement experiment was carried out by mixing 1 μM PI3K and 2 μM mant-ATP with 50 or 200 μM ATP. Curve fits were carried out with the Hi-Tech software and Kaleidagraph. Equilibrium and kinetic data for mant-ADP were collected by the same methods.

N-Ras.GDP = N-Ras.GDP (Homo sapiens, UniProt P01111); assay: Binding of PI3Kγ constructs to N-Ras.GDP
N-Ras.GDP, sequence (P01111 whole entry): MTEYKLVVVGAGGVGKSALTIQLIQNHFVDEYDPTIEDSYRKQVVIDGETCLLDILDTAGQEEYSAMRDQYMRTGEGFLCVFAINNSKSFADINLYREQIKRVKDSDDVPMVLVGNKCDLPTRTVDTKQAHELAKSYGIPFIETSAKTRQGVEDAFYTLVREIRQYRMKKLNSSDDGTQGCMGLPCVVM

N-Ras.mant-GMPPNP [1] = biological target: T2, N-Ras.mant-GMPPNP (Homo sapiens, UniProt P01111); assay: Fluorescence anisotropy titration of PI3Kγ 144-1102 into N-Ras.mant-GMPPNP; assay type: binding; settings: fluorescence anisotropy, 20° C., 1 μM N-Ras.mant-GMPPNP
T2 construct: fluorescence anisotropy of full length, unmodified N-Ras.mant-GMPPNP
Description: (§1) Mant-nucleotides were synthesised as described previously (Jameson and Eccleston, 1997). N-Ras and H-Ras mutants were loaded with mant-GMPPNP as in (Moore et al., 1993), gel filtered into running buffer (20 mM Tris pH 7.5, 2 mM MgCl2, 1 mM DTT), and frozen at −80° C. The concentration of Ras.mant-GMPPNP was determined by measuring the absorbance of the mant group at […] with ε=5700 M^−1 cm^−1 (Hiratsuka, 1983). For binding assays, the 144-1102 human PI3Kγ was titrated into a 1 μM solution of fill length, unmodified N-Ras.mant-GMPPNP. Data were collected with SLM 8000 S and ISS PC1 spectrofluorimeters, set up in the T-format and L-format, respectively, with prism polarizers. All measurements were taken at 20° C. with a λex of 366 nm. Both emission PMTs were fitted with 399 nm cutoff filters. Five measurements of each data point were obtained and averaged. Data were fitted to the binding equation.
Target sequence in this assay (P01111 whole entry): as above

N-Ras.mant-GMPPNP [2] = biological target: T2, N-Ras.mant-GMPPNP; assay: Stopped flow anisotropy, association and dissociation kinetics; assay type: binding; settings: 20° C.
Description: A Hi-Tech MX61 instrument (Hi-Tech, Salisbury) set up in the T-format with prism polarizers was used to collect data at 20° C. The mant group was excited at 366 nm and emission monitored through 399 nm cutoff filters. The association kinetics were followed by rapid mixing of PI3Kγ with 1 μM N-Ras.mant-GMPPNP under pseudo first-order conditions (PI3Kγ in large excess). Specifically, equal proportions of N-Ras and PI3Kγ were mixed to a final Ras concentration of 1 μM and final PI3Kγ concentrations of 5 and 10 μM. The dissociation rate was measured by mixing a solution of 1 μM N-Ras.mant-GMPPNP and 5 μM PI3K with 9 μM N-Ras.GMPPNP. Attempts to determine association rates at higher PI3K concentrations were limited by solubility of the protein. Data were fitted to single exponential curves within the Hi-Tech software.
Target sequence in this assay (P01111 whole entry): as above
Target sequence in this assay (P48736 144-1102 partner limits assumed): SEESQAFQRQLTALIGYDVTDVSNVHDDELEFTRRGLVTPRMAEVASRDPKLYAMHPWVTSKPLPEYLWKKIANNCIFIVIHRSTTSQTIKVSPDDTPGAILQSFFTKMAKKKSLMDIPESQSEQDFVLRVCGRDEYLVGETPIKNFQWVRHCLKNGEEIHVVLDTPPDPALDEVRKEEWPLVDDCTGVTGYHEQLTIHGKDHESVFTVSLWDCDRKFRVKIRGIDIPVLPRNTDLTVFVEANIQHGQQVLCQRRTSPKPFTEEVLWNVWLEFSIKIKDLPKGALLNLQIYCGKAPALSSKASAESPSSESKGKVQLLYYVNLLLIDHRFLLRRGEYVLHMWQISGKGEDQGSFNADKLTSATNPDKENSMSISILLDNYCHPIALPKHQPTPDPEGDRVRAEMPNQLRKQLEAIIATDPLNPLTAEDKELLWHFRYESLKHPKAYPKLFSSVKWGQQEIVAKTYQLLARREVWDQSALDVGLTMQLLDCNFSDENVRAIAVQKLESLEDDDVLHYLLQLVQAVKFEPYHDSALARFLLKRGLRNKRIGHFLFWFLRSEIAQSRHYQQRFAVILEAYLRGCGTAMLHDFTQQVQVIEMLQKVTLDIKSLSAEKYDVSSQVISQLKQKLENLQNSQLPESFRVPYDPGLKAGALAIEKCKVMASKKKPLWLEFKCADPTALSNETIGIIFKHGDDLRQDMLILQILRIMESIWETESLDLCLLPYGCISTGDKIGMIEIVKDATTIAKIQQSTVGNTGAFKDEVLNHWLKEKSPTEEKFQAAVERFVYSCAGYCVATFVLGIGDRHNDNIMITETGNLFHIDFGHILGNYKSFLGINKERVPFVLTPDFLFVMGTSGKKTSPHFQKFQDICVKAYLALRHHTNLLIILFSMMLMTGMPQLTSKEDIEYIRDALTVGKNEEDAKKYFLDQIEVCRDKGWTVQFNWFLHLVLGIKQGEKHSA

wild type H-Ras = wild type H-Ras (Homo sapiens, UniProt P01112); assay: Fluorescence anisotropy titration of PI3Kγ with H-Ras; assay type: binding
wild type H-Ras, sequence (P01112 whole entry): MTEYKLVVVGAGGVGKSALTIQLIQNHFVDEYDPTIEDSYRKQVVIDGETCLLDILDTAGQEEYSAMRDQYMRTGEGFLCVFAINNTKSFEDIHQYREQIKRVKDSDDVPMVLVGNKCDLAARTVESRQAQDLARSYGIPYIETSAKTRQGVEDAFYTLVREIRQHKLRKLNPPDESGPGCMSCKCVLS
wild type H-Ras, sequence (P48736 144-1102 partner limits assumed): as the sequence (P48736 144-1102 partner limits assumed) above
Description: as §1

T1 sequence (P48736 144-1102): as the sequence (P48736 144-1102 partner limits assumed) above

Row | Substance | nucleotide release from PI3Kγ (PI3K) | binding to N-Ras.GDP (N-Ras.GDP) | Kd (N-Ras.mant-GMPPNP [1]) | observed rate constant of the Ras.PI3K complex (single-exponential fit) (N-Ras.mant-GMPPNP [2]) | Kd (wild type H-Ras)
1 | mant-ADP | slower than mant-ATP release | – | – | – | –
2 | wild type PI3Kγ: residues 144-1102 of human PI3Kγ with a C-terminal His6 tag | – | Neither the wild-type protein, the pseudo wild-type (V327A, see methods), nor the V223K mutant exhibit detectable binding | 2.8 ± 0.4 µM | 18 s⁻¹ | 3.2 ± 0.5 µM
